Biological target: pre-existing anti-drug antibodies (ADA) present in human sera
Assay: ELISA pre-existing ADA binding assay, confirmatory setup, test molecule coated, 40 human sera

Row | % positives of total tested serum samples | No of positive serum samples above 31.56% CCP (serum samples) | Binder
1 | 22.5% | 9 | NM21-1480 (PRO1480) (protein) DIQMTQSPASLSASVGDRVTITCQASQSIGTYLAWYQQKPGKPPKLLIYRAFILASGVPSRFSGSGSGTDFTLTISSLQPEDFATYYCQSNFYSDSTTIGPNAFGTGTKVTVLGGGGGSEVQLVESGGGLVQPGGSLRLSCAASGFSFSANYYPCWVRQAPGKGLEWIGCIYGGSSDITYDANWTKGRFTISRDNSKNTVYLQMNSLRAEDTAVYYCARSAWYSGWGGDLWGQGTLVTVSSGGGGSGGGGSGGGGSGGGGSIQMTQSPSSLSASVGDRVTITCQASQSISNRLAWYQQKPGKAPKLLIYSASTLASGVPSRFSGSGSGTDFTLTISSLQPEDFATYYCQSTYYGNDGNAFGTGTKVTVLGGGGGSEVQLVESGGGLVQPGGSLRLSCAASGFSFNSDYWIYWVRQAPGKGLEWIASIYGGSSGNTQYASWAQGRFTISRDNSKNTVYLQMNSLRAEDTAVYFCARGYVDYGGATDLWGQGTLVTVSSGGGGSGGGGSIQMTQSPSSLSASVGDRVTITCQSSESVYSNNQLSWYQQKPGQPPKLLIYDASDLASGVPSRFSGSGSGTDFTLTISSLQPEDFATYYCAGGFSSSSDTAFGGGTKLTVLGGGGGSGGGGSGGGGSGGGGSEVQLVESGGGLVQPGGSLRLSCAASGFSLSSNAMGWVRQAPGKGLEYIGIISVGGFTYYASWAKGRFTISRDNSKNTVYLQMNSLRAEDTATYFCARDRHGGDSSGAFYLWGQGTLVTVSS
2 | 25% | 10 | PRO2760 (protein) DIQMTQSPASLSASVGDRVTITCQASQSIGTYLAWYQQKPGKPPKLLIYRAFILASGVPSRFSGSGSGTDFTLTISSLQPEDFATYYCQSNFYSDSTTIGPNAFGTGTKVTVLGGGGGSEVQLVESGGGRVQPGGSLRLSCAASGFSFSANYYPCWVRQAPGKGLEWIGCIYGGSSDITYDAQWTKGRFTISRDNSKNTVYLQMNSLRAEDTATYYCARSAWYSGWGGDLWGQGTQVTVSSGGGGSGGGGSGGGGSGGGGSIQMTQSPSSLSASVGDRVTITCQASQSISNRLAWYQQKPGKAPKLLIYSASTLASGVPSRFSGSGSGTDFTLTISSLQPEDFATYYCQSTYYGNDGNAFGTGTKVTVLGGGGGSEVQLVESGGGLVQPGGSLRLSCAASGFSFNSDYWIYWVRQAPGKGLEWIASIYGGSSGNTQYASWAQGRFTISRDNSKNTVYLQMNSLRAEDTAVYFCARGYVDYGGATDLWGQGTLVTVSSGGGGSGGGGSIQMTQSPSSLSASVGDRVTITCQSSESVYSNNQLSWYQQKPGQPPKLLIYDASDLASGVPSRFSGSGSGTDFTLTISSLQPEDFATYYCAGGFSSSSDTAFGGGTKLTVLGGGGGSGGGGSGGGGSGGGGSEVQLVESGGGLVQPGGSLRLSCAASGFSLSSNAMGWVRQAPGKGLEYIGIISVGGFTYYASWAKGRFTISRDNSKNTVYLQMNSLRAEDTATYFCARDRHGGDSSGAFYLWGQGTLVTVSS
3 | 5% | 2 | PRO2758 (protein) DIQMTQSPASLSASVGDRVTITCQASQSIGTYLAWYQQKPGKPPKLLIYRAFILASGVPSRFSGSGSGTDFTLTISSLQPEDFATYYCQSNFYSDSTTIGPNAFGTGTKVTVLGGGGGSEVQLVESGGGRVQPGGSLRLSCAASGFSFSANYYPCWVRQAPGKGLEWIGCIYGGSSDITYDAQWTKGRFTISRDNSKNTVYLQMNSLRAEDTATYYCARSAWYSGWGGDLWGQGTQVTVSSGGGGSGGGGSGGGGSGGGGSIQMTQSPSSLSASVGDRVTITCQASQSISNRLAWYQQKPGKAPKLLIYSASTLASGVPSRFSGSGSGTDFTLTISSLQPEDFATYYCQSTYYGNDGNAFGTGTKVTVLGGGGGSEVQLVESGGGRVQPGGSLRLSCAASGFSFNSDYWIYWVRQAPGKGLEWIASIYGGSSGNTQYASWAQGRFTISRDNSKNTVYLQMNSLRAEDTATYFCARGYVDYGGATDLWGQGTQVTVSSGGGGSGGGGSIQMTQSPSSLSASVGDRVTITCQSSESVYSNNQLSWYQQKPGQPPKLLIYDASDLASGVPSRFSGSGSGTDFTLTISSLQPEDFATYYCAGGFSSSSDTAFGGGTKLTVLGGGGGSGGGGSGGGGSGGGGSEVQLVESGGGRVQPGGSLRLSCAASGFSLSSNAMGWVRQAPGKGLEYIGIISVGGFTYYASWAKGRFTISRDNSKNTVYLQMNSLRAEDTATYFCARDRHGGDSSGAFYLWGQGTQVTVSS
4 | 15% | 6 | PRO2759 (protein) DIQMTQSPASLSASVGDRVTITCQASQSIGTYLAWYQQKPGKPPKLLIYRAFILASGVPSRFSGSGSGTDFTLTISSLQPEDFATYYCQSNFYSDSTTIGPNAFGTGTKVTVLGGGGGSEVQLVESGGGLVQPGGSLRLSCAASGFSFSANYYPCWVRQAPGKGLEWIGCIYGGSSDITYDAQWTKGRFTISRDNSKNTVYLQMNSLRAEDTAVYYCARSAWYSGWGGDLWGQGTLVTVSSGGGGSGGGGSGGGGSGGGGSIQMTQSPSSLSASVGDRVTITCQASQSISNRLAWYQQKPGKAPKLLIYSASTLASGVPSRFSGSGSGTDFTLTISSLQPEDFATYYCQSTYYGNDGNAFGTGTKVTVLGGGGGSEVQLVESGGGRVQPGGSLRLSCAASGFSFNSDYWIYWVRQAPGKGLEWIASIYGGSSGNTQYASWAQGRFTISRDNSKNTVYLQMNSLRAEDTATYFCARGYVDYGGATDLWGQGTQVTVSSGGGGSGGGGSIQMTQSPSSLSASVGDRVTITCQSSESVYSNNQLSWYQQKPGQPPKLLIYDASDLASGVPSRFSGSGSGTDFTLTISSLQPEDFATYYCAGGFSSSSDTAFGGGTKLTVLGGGGGSGGGGSGGGGSGGGGSEVQLVESGGGLVQPGGSLRLSCAASGFSLSSNAMGWVRQAPGKGLEYIGIISVGGFTYYASWAKGRFTISRDNSKNTVYLQMNSLRAEDTATYFCARDRHGGDSSGAFYLWGQGTLVTVSS
5 | 7.5% | 3 | PRO2761 (protein) DIQMTQSPASLSASVGDRVTITCQASQSIGTYLAWYQQKPGKPPKLLIYRAFILASGVPSRFSGSGSGTDFTLTISSLQPEDFATYYCQSNFYSDSTTIGPNAFGTGTKVTVLGGGGGSEVQLVESGGGLVQPGGSLRLSCAASGFSFSANYYPCWVRQAPGKGLEWIGCIYGGSSDITYDAQWTKGRFTISRDNSKNTVYLQMNSLRAEDTAVYYCARSAWYSGWGGDLWGQGTLVTVSSGGGGSGGGGSGGGGSGGGGSIQMTQSPSSLSASVGDRVTITCQASQSISNRLAWYQQKPGKAPKLLIYSASTLASGVPSRFSGSGSGTDFTLTISSLQPEDFATYYCQSTYYGNDGNAFGTGTKVTVLGGGGGSEVQLVESGGGLVQPGGSLRLSCAASGFSFNSDYWIYWVRQAPGKGLEWIASIYGGSSGNTQYASWAQGRFTISRDNSKNTVYLQMNSLRAEDTAVYFCARGYVDYGGATDLWGQGTLVTVSSGGGGSGGGGSIQMTQSPSSLSASVGDRVTITCQSSESVYSNNQLSWYQQKPGQPPKLLIYDASDLASGVPSRFSGSGSGTDFTLTISSLQPEDFATYYCAGGFSSSSDTAFGGGTKLTVLGGGGGSGGGGSGGGGSGGGGSEVQLVESGGGRVQPGGSLRLSCAASGFSLSSNAMGWVRQAPGKGLEYIGIISVGGFTYYASWAKGRFTISRDNSKNTVYLQMNSLRAEDTATYFCARDRHGGDSSGAFYLWGQGTQVTVSS

Biological target: pre-existing anti-drug antibodies (ADA) present in human sera
Assay: ELISA pre-existing ADA binding assay, confirmatory setup, test molecule coated, 20 human sera

Row | % positives of total tested serum samples | No of positive serum samples above 30% CCP (serum samples) | Binder
6 | 5% | 1 | PRO2669 (protein) chain 1: DVQMTQSPSSLSASVGDRVTITCRASENIYSGLAWYQQKPGKPPKLLIYRASTLASGVSSRFSGSGSGTDFTLTISSLQPEDFATYYCQGGYYSSSSTYIAFGTGTKVTVLGGGGGSGGGGSGGGGSGGGGSQSQVVESGGGRVQPGGSLRLSCAVSGFDLSSYAVSWVRQAPGKGLEWIGIIYPRANTYYASWAKGRFTISKDNSKNTVYLQMNSLRAEDTATYFCARDRYDSGAYLYTTYFNLWGQGTQVTVSSGGGGSGGGGSAFELTQSPSSLSASVGDRVTITCQASESINSRLAWYQQKPGQPPKLLIYDASDLTSGVPSRFSGSGSGTDFTLTISSLQPEDFATYYCQGYGGSSTTTFGCGTKLTVLGGGSGGSDIQMTQSPSSLSASVGDRVTITCQSSQSVFSNNYLAWFQQKPGQSPKRLIYSASTLASGVPSRFSGSGSGTDFTLTISSLQPEDFATYYCLGSYACSSADCYVFGTGTKVTVLG chain 2: DVQMTQSPSSLSASVGDRVTITCRASENIYSGLAWYQQKPGKPPKLLIYRASTLASGVSSRFSGSGSGTDFTLTISSLQPEDFATYYCQGGYYSSSSTYIAFGTGTKVTVLGGGGGSGGGGSGGGGSGGGGSQSQVVESGGGRVQPGGSLRLSCAVSGFDLSSYAVSWVRQAPGKGLEWIGIIYPRANTYYASWAKGRFTISKDNSKNTVYLQMNSLRAEDTATYFCARDRYDSGAYLYTTYFNLWGQGTQVTVSSGGGGSGGGGSEVQLVESGGGRVQPGGSLRLSCAASGFSLSSYDMSWVRQAPGKGLAWIGASYASGPTYYASWAKGRFTISRDNSKNTVYLQMNSLRAEDTATYFCARGGWTGTSHSNIWGQGTQVTVSSGGGSGGGSGGGSGEVQLVESGGGRVQPGGSLRLSCAASGFSLSSYAMNWVRQAPGKCLEWIGHINAGDIAYYATWAKGRFTISRDNSKNTVYLQMNSLRAEDTATYFCARGAGGFSTGPFKLWGQGTQVTVSS
7 | 15% | 3 | PRO2510 (protein) AFELTQSPSSLSASVGDRVTITCQASESINSRLAWYQQKPGQPPKLLIYDASDLTSGVPSRFSGSGSGTDFTLTISSLQPEDFATYYCQGYGGSSTTTFGCGTKLTVLGGGGGSEVQLVESGGGLVQPGGSLRLSCAASGFSLSSYDMSWVRQAPGKGLAWIGASYASGPTYYASWAKGRFTISRDNSKNTVYLQMNSLRAEDTATYFCARGGWTGTSHSNIWGQGTLVTVSSGGGGSGGGGSGGGGSGGGGSDIQMTQSPSSLSASVGDRVTITCQSSQSVFSNNYLAWFQQKPGQSPKRLIYSASTLASGVPSRFSGSGSGTDFTLTISSLQPEDFATYYCLGSYACSSADCYVFGTGTKVTVLGGGGGSEVQLVESGGGLVQPGGSLRLSCAASGFSLSSYAMNWVRQAPGKCLEWIGHINAGDIAYYATWAKGRFTISRDNSKNTVYLQMNSLRAEDTAVYFCARGAGGFSTGPFKLWGQGTLVTVSSGGGGSGGGGSAQQLTQSPSSLSASVGDRVTITCQASQNVWNNNYLSWFQQKPGKPPKLLIVTASTLASGVSSRFSGSGSGTDFTLTISSLQPEDFATYYCAGGFSGEIRAFGCGTKVTVLGGGGGSGGGGSGGGGSGGGGSQSQLVESGGGLVQPGGSLRLSCAVSGLSLSRNAMSWVRQAPGKCLEWIGIILTSGSTYYASWAKGRFTISKDNSKNTVYLQMNSLRAEDTAVYFCVRGIASSSLKSFWGQGTLVTVSS

Source: patent US20240084039A1
